Values quoted from earlier work, collected in patent publication US20220347322A1, “METHOD OF TREATING ARTERIOVENOUS MALFORMATIONS BY TARGETING THE EPHRIN PATHWAY” (THE REGENTS OF THE UNIVERSITY OF CALIFORNIA, priority 2019, published 2022).

Tested on: EphB4 signaling
Details: in mice; cited reference 38; cited from earlier work

B1: sEphB4: The soluble extracellular domain of EphB4; pharmacological inhibitor of EphB4 signaling (protein, UniProt P54760 16-539, looked up)
extracellular domain: LEETLLNTKLETADLKWVTFPQVDGQWEELSGLDEEQHSVRTYEVCDVQRAPGQAHWLRTGWVPRRGAVHVYATLRFTMLECLSLPRAGRSCKETFTVFYYESDADTATALTPAWMENPYIKVDTVAAEHLTRKRPGAEATGKVNVKTLRLGPLSKAGFYLAFQDQGACMALLSLHLFYKKCAQLTVNLTRFPETVPRELVVPVAGSCVVDAVPAPGPSPSLYCREDGQWAEQPVTGCSCAPGFEAAEGNTKCRACAQGTFKPLSGEGSCQPCPANSHSNTIGSAVCQCRVGYFRARTDPRGAPCTTPPSAPRSVVSRLNGSSLHLEWSAPLESGGREDLTYALRCRECRPGGSCAPCGGDLTFDPGPRDLVEPWVVVRGLRPDFTYTFEVTALNGVSSLATGPVPFEPVNVTTDREVPPAVSDIRVTRSSPSSLSLAWAVPRAPSGAVLDYEVKYHEKGAEGPSSVRFLKTSENRAELRGLKRGASYLVQVRARSEAGYGPFGQEHHSQTQLDESEGWREQLA
modifications: extracellular domain
For B1, which “inhibition of EphB4 signaling” value is on record?
Its value is “completely inhibits EphB4 signaling”.
